Assay results published in ChEMBL document CHEMBL1132473.

Columns and labels:
[1] = biological target: 4-aminobutyrate aminotransferase, mitochondrial (Sus scrofa) (UniProt P80147)
Description: (§1) Compound was tested for the inhibition of Gamma-amino-N-butyrate transaminase (GABA-AT)

[2] = test system: N[C@@H]1C=C[C@@H](C(=O)O)C1
[3] = test system: N[C@H]1C=C[C@@H](C(=O)O)C1
[4] = test system: N[C@@H]1C=C[C@H](C(=O)O)C1
Description: as §1

4-aminobutyrate aminotransferase, mitochondrial (Sus scrofa), P80147, sequence (P80147 whole entry): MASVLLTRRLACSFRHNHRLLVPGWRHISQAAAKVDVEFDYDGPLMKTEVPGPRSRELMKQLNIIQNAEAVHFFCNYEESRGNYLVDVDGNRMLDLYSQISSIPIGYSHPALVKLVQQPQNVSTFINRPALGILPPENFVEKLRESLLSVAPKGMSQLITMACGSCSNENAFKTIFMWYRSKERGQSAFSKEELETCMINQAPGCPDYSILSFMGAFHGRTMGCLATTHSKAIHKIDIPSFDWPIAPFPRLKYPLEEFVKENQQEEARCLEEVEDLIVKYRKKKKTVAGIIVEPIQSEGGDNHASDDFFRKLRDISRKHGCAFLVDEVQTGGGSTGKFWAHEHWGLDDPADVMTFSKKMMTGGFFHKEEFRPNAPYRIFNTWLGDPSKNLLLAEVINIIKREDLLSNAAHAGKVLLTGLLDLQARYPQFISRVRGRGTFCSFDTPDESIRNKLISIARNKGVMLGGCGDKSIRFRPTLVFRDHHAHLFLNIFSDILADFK
4-aminobutyrate aminotransferase, mitochondrial (Sus scrofa), sequence (P80147 whole entry): as above
Description for NC1C=CC(C(=O)O)C1: as §1
Description for N[C@@H]1CC=C(C(=O)O)C1: as §1

Molecule: N[C@@H]1C=C[C@H](C(=O)O)C1
- k cat [1]: 0.195 s⁻¹

Molecule: NC1C=CC(C(=O)O)C1 (racemic)
- k cat [1]: 0.667 s⁻¹

Molecule: N[C@@H]1CC=C(C(=O)O)C1
- k cat [1]: 0.625 s⁻¹

Molecule: 4-aminobutyrate aminotransferase, mitochondrial (Sus scrofa), P80147
- Km (N[C@H]1CC=C(C(=O)O)C1): No turn over
- Km [2]: No turn over
- Km [3]: No turn over
- Km (N[C@@H]1CC=C(C(=O)O)C1): 1600 µM
- Km [4]: 100 µM
- Km (NC1C=CC(C(=O)O)C1): 2300 µM
